Numbering of substitutions follows the chain as printed. Like-named read-outs stand apart in the source and are kept apart here.
Key:
[1] = target: cyno CD21 protein (cynomolgus monkey); experiment: affinity KD; method not restated (Biacore elsewhere)
[2] = target: cyno CD21 protein (cynomolgus monkey); experiment: SPR (Biacore), KD against Ab89
human CD21 protein [3] = target: T1, human CD21 protein (human, UniProt P20023 21-971, limits assumed); experiment: SPR (Biacore), KD against Ab89
T1 construct: the Biacore set-up is not described; also called huCD21; CR2
T1 sequence (looked up): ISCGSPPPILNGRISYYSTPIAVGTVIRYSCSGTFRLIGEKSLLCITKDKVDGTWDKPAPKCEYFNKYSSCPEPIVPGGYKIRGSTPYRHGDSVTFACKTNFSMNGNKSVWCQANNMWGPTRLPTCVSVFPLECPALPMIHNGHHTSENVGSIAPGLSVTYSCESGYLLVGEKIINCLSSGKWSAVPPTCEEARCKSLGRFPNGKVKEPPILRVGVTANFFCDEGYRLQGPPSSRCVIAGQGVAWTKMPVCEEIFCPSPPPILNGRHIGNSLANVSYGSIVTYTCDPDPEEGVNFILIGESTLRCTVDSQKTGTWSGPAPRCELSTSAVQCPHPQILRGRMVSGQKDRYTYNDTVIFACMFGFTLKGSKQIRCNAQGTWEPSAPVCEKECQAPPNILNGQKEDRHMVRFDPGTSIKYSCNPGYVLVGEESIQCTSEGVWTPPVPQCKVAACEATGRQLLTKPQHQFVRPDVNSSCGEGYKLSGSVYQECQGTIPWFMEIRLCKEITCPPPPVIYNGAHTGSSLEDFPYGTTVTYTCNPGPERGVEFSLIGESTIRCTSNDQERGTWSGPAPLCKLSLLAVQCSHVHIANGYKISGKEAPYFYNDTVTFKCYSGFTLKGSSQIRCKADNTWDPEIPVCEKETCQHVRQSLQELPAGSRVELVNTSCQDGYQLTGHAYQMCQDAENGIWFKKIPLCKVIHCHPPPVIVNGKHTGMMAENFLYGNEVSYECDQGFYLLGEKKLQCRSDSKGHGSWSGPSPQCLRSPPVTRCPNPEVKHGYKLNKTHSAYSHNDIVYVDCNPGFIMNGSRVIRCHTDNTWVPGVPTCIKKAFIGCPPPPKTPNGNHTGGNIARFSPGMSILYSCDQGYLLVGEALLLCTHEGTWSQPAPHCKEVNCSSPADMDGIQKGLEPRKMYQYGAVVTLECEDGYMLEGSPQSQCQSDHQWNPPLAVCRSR

human CD21 protein [4] = target: T1, human CD21 protein; experiment: SPR (Biacore)
human CD21 protein [5] = target: T1, human CD21 protein; experiment: SPR (Biacore); remark: listed apart in the source
insulin = insulin (UniProt P01308); experiment: polyreactivity ELISA on coated insulin; third number of the cell
human CD21 protein [6] = target: T1, human CD21 protein; experiment: affinity KD; method not restated (Biacore elsewhere)
[7] = target: T2, human CD21 on Raji B cells or primary B cells (human, UniProt P20023 21-1033); experiment: cell-based or functional assay
T2 sequence (looked up): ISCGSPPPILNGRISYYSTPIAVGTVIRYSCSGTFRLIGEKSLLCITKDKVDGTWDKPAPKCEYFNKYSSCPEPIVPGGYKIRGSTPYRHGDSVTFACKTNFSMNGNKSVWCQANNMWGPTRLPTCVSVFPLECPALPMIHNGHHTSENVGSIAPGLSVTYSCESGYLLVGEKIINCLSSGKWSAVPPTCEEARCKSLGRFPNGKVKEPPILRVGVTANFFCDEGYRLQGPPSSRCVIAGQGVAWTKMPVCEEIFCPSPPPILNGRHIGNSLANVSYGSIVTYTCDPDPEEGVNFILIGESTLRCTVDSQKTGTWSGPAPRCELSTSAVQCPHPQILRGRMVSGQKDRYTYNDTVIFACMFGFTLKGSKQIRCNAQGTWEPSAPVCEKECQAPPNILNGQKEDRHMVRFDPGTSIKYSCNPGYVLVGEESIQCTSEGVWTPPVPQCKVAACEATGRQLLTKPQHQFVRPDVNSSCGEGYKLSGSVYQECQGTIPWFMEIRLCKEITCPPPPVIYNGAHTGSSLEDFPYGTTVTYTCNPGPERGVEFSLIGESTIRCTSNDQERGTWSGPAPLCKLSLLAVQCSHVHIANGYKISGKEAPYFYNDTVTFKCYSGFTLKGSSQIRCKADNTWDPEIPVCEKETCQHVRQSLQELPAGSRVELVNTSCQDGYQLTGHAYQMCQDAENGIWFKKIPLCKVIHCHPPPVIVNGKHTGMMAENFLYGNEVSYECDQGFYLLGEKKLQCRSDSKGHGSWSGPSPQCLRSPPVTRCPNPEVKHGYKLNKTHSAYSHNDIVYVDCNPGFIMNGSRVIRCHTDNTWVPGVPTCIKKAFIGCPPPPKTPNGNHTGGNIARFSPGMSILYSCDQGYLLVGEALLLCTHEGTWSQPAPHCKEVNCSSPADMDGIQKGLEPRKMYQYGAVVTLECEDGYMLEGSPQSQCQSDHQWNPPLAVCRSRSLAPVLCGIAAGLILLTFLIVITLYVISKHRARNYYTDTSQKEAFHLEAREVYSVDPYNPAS

[8] = target: T2, human CD21 on Raji B cells or primary B …; experiment: cell-based or functional assay; remark: listed apart in the source
[9] = target: cyno CD21 protein (cynomolgus monkey); experiment: SPR (Biacore)
[10] = target: cyno CD21 protein (cynomolgus monkey); experiment: SPR (Biacore); remark: listed apart in the source
[11] = target: T2, human CD21 on Raji B cells or primary B …; experiment: competition with human C3d on primary B cells
[12] = target: T2, human CD21 on Raji B cells or primary B …; experiment: competition with human C3d on Raji B cells
[13] = target: T2, human CD21 on Raji B cells or primary B …; experiment: Raji B cell binding
human CD21 protein [14] = target: T1, human CD21 protein; experiment: SPR (Biacore); remark: listed apart in the source
human CD21 protein [15] = target: T1, human CD21 protein; experiment: affinity KD; method not restated (Biacore elsewhere); remark: listed apart in the source

Sequence of insulin (P01308 25-54 limits assumed, chain 1 of 2): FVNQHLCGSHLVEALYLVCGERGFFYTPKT
Sequence of insulin (P01308 90-110 limits assumed, chain 2 of 2): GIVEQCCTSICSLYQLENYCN

B1: Ab423 (antibody, human IgG1, kappa, V domains shown)
VH: QVQLVQSGAEVKKPGSSVKVSCKASGGTFSSYAISWVRQAPGQGLEWMGRIIPILGIANYAQKFQGRVTITADKSTSTAYMELSSLRSEDTAVYYCAREDDISGYYQDWGQGTLVTVSS
VL: EIVMTQSPATLSVSPGERATLSCRAGQSINSYLAWYQQKPGQAPRLLIYDASTRATGIPARFSGSGSGTEFTLTISSLQSEDFAVYYCQQYEYWYTFGQGTKLEIKR
notes: IgG1
- Kd [1]: 0.23 nM
- fold affinity improvement over parental Ab89 [2]: 92 fold
- fold affinity improvement over parental Ab89 (human CD21 protein [3]): 1780 fold
- Kd (human CD21 protein [4]): 0.0399 nM
- Kd (human CD21 protein [5]): 0.039 nM
- insulin-binding score (ratio to buffer well) (insulin): 2
- Kd (human CD21 protein [6]): 0.039 nM
- pAKT inhibition, IC50, nM; Primary B cells [7]: 7.94 nM
- pAKT inhibition, IC50, nM; Raji B cells [7]: 14.9 nM
- pAKT inhibition, IC50, nM; Primary B cells [8]: 7.94 nM
- pAKT inhibition, IC50, nM; Raji B cells [8]: 14.9 nM
- Kd [9]: 0.233 nM
- Kd [10]: 0.23 nM

B2: Ab89 (antibody, human IgG1, kappa, V domains shown)
VH: B1 VH with I102S
VL: B1 VL with Y32H
notes: IgG1; also called germlined derivative of Ab15
- IC50 [11]: 1.22 nM
- IC50 [12]: 2.13 nM
- EC50 [13]: 6.37 nM
- Kd (human CD21 protein [14]): 71.1 nM
- Kd [9]: 21.4 nM

B3: Ab648 (antibody, human IgG1, kappa, V domains shown)
VH: B1 VH with T28E, F29L, S31T, D100E
VL: B1 VL with N30S, T53S, T96S
notes: IgG1
- Kd [1]: 0.15 nM
- Kd (human CD21 protein [15]): 0.01 nM
- insulin-binding score (ratio to buffer well) (insulin): 1
- Kd (human CD21 protein [6]): 0.01 nM

B4: Ab646 (antibody, human IgG1, kappa, V domains shown)
VH: B1 VH with T28E, F29L, S30Q, S31T, Y32L, D100E
VL: B1 VL with N30S, T53S, T96S
notes: IgG1
- Kd [1]: 0.05 nM
- Kd (human CD21 protein [15]): 0.01 nM
- insulin-binding score (ratio to buffer well) (insulin): 1
- Kd (human CD21 protein [6]): 0.01 nM
